We go through 2 proteins from publication PMC2606041 (Structure (London, England : 1993), 2008).

The series “SEC” deals with the molecule itself. Briefly: SEC. On the technique in general: In gel filtration, larger molecules generally elute earlier.
The series “NMR solution structure” deals with the molecule itself. Briefly: NMR solution structure.

B1: SpoVTN (N-terminal DNA-binding domain of SpoVT, residues 1-55) (domain or fragment, Bacillus subtilis, UniProt P37554 1-55, looked up)
chain: MKATGIVRRIDDLGRVVIPKEIRRTLRIREGDPLEIFVDRDGEVILKKYSPISEL
The term stoichiometry N denotes a count of units in the complex or per binding partner. With B1, the “stoichiometry N” value in “SEC” was determined as 2.

B2: AbhN (N-terminal DNA-binding domain of Abh, residues 1-54) (domain or fragment, Bacillus subtilis, UniProt P39758 1-54, looked up)
chain: MKSIGVVRKVDELGRIVMPIELRRALDIAIKDSIEFFVDGDKIILKKYKPHGVC
Turning to B2, the binding result in “NMR solution structure” is given as “binds”.
